T1: EsCas13d, nuclease-dead (Eubacterium siraeum, UniProt B0MS50, R295A;H300A;R849A;H854A)
T1 sequence: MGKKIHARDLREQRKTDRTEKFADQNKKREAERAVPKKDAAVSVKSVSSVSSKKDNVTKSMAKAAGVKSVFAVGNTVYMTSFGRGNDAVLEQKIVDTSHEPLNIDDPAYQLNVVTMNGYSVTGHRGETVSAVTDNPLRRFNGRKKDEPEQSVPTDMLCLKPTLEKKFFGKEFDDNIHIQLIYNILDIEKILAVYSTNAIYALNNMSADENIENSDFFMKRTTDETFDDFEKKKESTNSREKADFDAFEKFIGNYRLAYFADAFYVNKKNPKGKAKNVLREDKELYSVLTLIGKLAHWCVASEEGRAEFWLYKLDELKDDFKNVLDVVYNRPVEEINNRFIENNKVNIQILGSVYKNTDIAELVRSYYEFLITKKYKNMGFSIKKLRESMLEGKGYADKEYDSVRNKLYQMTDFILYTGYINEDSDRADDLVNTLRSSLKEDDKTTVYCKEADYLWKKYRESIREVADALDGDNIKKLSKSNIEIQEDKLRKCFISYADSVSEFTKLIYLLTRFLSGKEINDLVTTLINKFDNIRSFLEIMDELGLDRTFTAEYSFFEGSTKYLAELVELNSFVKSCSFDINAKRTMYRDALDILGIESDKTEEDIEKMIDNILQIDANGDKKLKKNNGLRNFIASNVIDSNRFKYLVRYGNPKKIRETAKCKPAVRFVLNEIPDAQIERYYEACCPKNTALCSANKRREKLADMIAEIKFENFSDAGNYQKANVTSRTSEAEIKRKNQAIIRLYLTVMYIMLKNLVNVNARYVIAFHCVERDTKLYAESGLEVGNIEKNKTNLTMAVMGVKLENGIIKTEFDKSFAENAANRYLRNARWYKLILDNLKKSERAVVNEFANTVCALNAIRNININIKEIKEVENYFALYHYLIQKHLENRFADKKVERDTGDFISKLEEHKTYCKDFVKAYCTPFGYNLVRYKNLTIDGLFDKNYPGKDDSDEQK

B1: target 1 U3G,U11C (mixed)
RNA 1: CACCCGUGCAAAAAUGCAGGGGUCUAAAACUGAGCGGAUAACCUCUCUAUGG
RNA 2: GGGAAUGGAUCCACAUCUACGAAUUCGUACCAUAGAGAGGCUAUCCGCGCACCGAGAUCGGAAGAGCACACGU
B2: target 1 insC 3' of 17,insC 3' of 9 (mixed)
RNA 1: CACCCGUGCAAAAAUGCAGGGGUCUAAAACUGAGCGGAUAACCUCUCUAUGG
RNA 2: GGGAAUGGAUCCACAUCUACGAAUUCGUACCAUAGCAGAGGUUACUCCGCUCACCGAGAUCGGAAGAGCACACGU
B3: target 1 insC 3' of 12,insA 3' of 6 (mixed)
RNA 1: CACCCGUGCAAAAAUGCAGGGGUCUAAAACUGAGCGGAUAACCUCUCUAUGG
RNA 2: GGGAAUGGAUCCACAUCUACGAAUUCGUACCAUAGAGAGGCUUAUCCAGCUCACCGAGAUCGGAAGAGCACACGU
B4: target 1 del15,del17 (mixed)
RNA 1: CACCCGUGCAAAAAUGCAGGGGUCUAAAACUGAGCGGAUAACCUCUCUAUGG
RNA 2: GGGAAUGGAUCCACAUCUACGAAUUCGUACCAUAAAGGUUAUCCGCUCACCGAGAUCGGAAGAGCACACGU
B5: target 1 insU 3' of 15,insC 3' of 12 (mixed)
RNA 1: CACCCGUGCAAAAAUGCAGGGGUCUAAAACUGAGCGGAUAACCUCUCUAUGG
RNA 2: GGGAAUGGAUCCACAUCUACGAAUUCGUACCAUAGAGUAGGCUUAUCCGCUCACCGAGAUCGGAAGAGCACACGU
B6: target 1 G5A,U10G (mixed)
RNA 1: CACCCGUGCAAAAAUGCAGGGGUCUAAAACUGAGCGGAUAACCUCUCUAUGG
RNA 2: GGGAAUGGAUCCACAUCUACGAAUUCGUACCAUAGAGAGGUGAUCCACUCACCGAGAUCGGAAGAGCACACGU
B7: target 1 insG 3' of 16,insG 3' of 1 (mixed)
RNA 1: CACCCGUGCAAAAAUGCAGGGGUCUAAAACUGAGCGGAUAACCUCUCUAUGG
RNA 2: GGGAAUGGAUCCACAUCUACGAAUUCGUACCAUAGAGGAGGUUAUCCGCUCAGCCGAGAUCGGAAGAGCACACGU
B8: target 1 insG 3' of 16,insC 3' of 11 (mixed)
RNA 1: CACCCGUGCAAAAAUGCAGGGGUCUAAAACUGAGCGGAUAACCUCUCUAUGG
RNA 2: GGGAAUGGAUCCACAUCUACGAAUUCGUACCAUAGAGGAGGUCUAUCCGCUCACCGAGAUCGGAAGAGCACACGU
B9: target 1 insG 3' of 16,insC 3' of 1 (mixed)
RNA 1: CACCCGUGCAAAAAUGCAGGGGUCUAAAACUGAGCGGAUAACCUCUCUAUGG
RNA 2: GGGAAUGGAUCCACAUCUACGAAUUCGUACCAUAGAGGAGGUUAUCCGCUCACCCGAGAUCGGAAGAGCACACGU
B10: target 1 insG 3' of 21,insA 3' of 7 (mixed)
RNA 1: CACCCGUGCAAAAAUGCAGGGGUCUAAAACUGAGCGGAUAACCUCUCUAUGG
RNA 2: GGGAAUGGAUCCACAUCUACGAAUUCGUACCGAUAGAGAGGUUAUCACGCUCACCGAGAUCGGAAGAGCACACGU
B11: target 1 insG 3' of 14,insG 3' of 2 (mixed)
RNA 1: CACCCGUGCAAAAAUGCAGGGGUCUAAAACUGAGCGGAUAACCUCUCUAUGG
RNA 2: GGGAAUGGAUCCACAUCUACGAAUUCGUACCAUAGAGAGGGUUAUCCGCUCGACCGAGAUCGGAAGAGCACACGU
B12: target 1 G5U,U8C (mixed)
RNA 1: CACCCGUGCAAAAAUGCAGGGGUCUAAAACUGAGCGGAUAACCUCUCUAUGG
RNA 2: GGGAAUGGAUCCACAUCUACGAAUUCGUACCAUAGAGAGGUUACCCUCUCACCGAGAUCGGAAGAGCACACGU
B13: target 1 C2A,U19A (mixed)
RNA 1: CACCCGUGCAAAAAUGCAGGGGUCUAAAACUGAGCGGAUAACCUCUCUAUGG
RNA 2: GGGAAUGGAUCCACAUCUACGAAUUCGUACCAAAGAGAGGUUAUCCGCUAACCGAGAUCGGAAGAGCACACGU
B14: target 1 insA 3' of 17,insC 3' of 15 (mixed)
RNA 1: CACCCGUGCAAAAAUGCAGGGGUCUAAAACUGAGCGGAUAACCUCUCUAUGG
RNA 2: GGGAAUGGAUCCACAUCUACGAAUUCGUACCAUAGAAGCAGGUUAUCCGCUCACCGAGAUCGGAAGAGCACACGU
B15: target 1 insG 3' of 21,insA 3' of 15 (mixed)
RNA 1: CACCCGUGCAAAAAUGCAGGGGUCUAAAACUGAGCGGAUAACCUCUCUAUGG
RNA 2: GGGAAUGGAUCCACAUCUACGAAUUCGUACCGAUAGAGAAGGUUAUCCGCUCACCGAGAUCGGAAGAGCACACGU
B16: target 1 insU 3' of 12,insA 3' of 5 (mixed)
RNA 1: CACCCGUGCAAAAAUGCAGGGGUCUAAAACUGAGCGGAUAACCUCUCUAUGG
RNA 2: GGGAAUGGAUCCACAUCUACGAAUUCGUACCAUAGAGAGGUUUAUCCGACUCACCGAGAUCGGAAGAGCACACGU
B17: target 1 insC 3' of 8,insU 3' of 5 (mixed)
RNA 1: CACCCGUGCAAAAAUGCAGGGGUCUAAAACUGAGCGGAUAACCUCUCUAUGG
RNA 2: GGGAAUGGAUCCACAUCUACGAAUUCGUACCAUAGAGAGGUUAUCCCGUCUCACCGAGAUCGGAAGAGCACACGU
B18: target 1 insG 3' of 16,insA 3' of 2 (mixed)
RNA 1: CACCCGUGCAAAAAUGCAGGGGUCUAAAACUGAGCGGAUAACCUCUCUAUGG
RNA 2: GGGAAUGGAUCCACAUCUACGAAUUCGUACCAUAGAGGAGGUUAUCCGCUCAACCGAGAUCGGAAGAGCACACGU
B19: target 1 A14G,C21U (mixed)
RNA 1: CACCCGUGCAAAAAUGCAGGGGUCUAAAACUGAGCGGAUAACCUCUCUAUGG
RNA 2: GGGAAUGGAUCCACAUCUACGAAUUCGUACUAUAGAGGGGUUAUCCGCUCACCGAGAUCGGAAGAGCACACGU
B20: target 1 insU 3' of 12,insU 3' of 5 (mixed)
RNA 1: CACCCGUGCAAAAAUGCAGGGGUCUAAAACUGAGCGGAUAACCUCUCUAUGG
RNA 2: GGGAAUGGAUCCACAUCUACGAAUUCGUACCAUAGAGAGGUUUAUCCGUCUCACCGAGAUCGGAAGAGCACACGU
B21: target 1 insC 3' of 3 (mixed)
RNA 1: CACCCGUGCAAAAAUGCAGGGGUCUAAAACUGAGCGGAUAACCUCUCUAUGG
RNA 2: GGGAAUGGAUCCACAUCUACGAAUUCGUACCAUAGAGAGGUUAUCCGCUCCACCGAGAUCGGAAGAGCACACGU
B22: target 1 U11C,G12U (mixed)
RNA 1: CACCCGUGCAAAAAUGCAGGGGUCUAAAACUGAGCGGAUAACCUCUCUAUGG
RNA 2: GGGAAUGGAUCCACAUCUACGAAUUCGUACCAUAGAGAGUCUAUCCGCUCACCGAGAUCGGAAGAGCACACGU
B23: target 1 U10C,C22A (mixed)
RNA 1: CACCCGUGCAAAAAUGCAGGGGUCUAAAACUGAGCGGAUAACCUCUCUAUGG
RNA 2: GGGAAUGGAUCCACAUCUACGAAUUCGUAACAUAGAGAGGUCAUCCGCUCACCGAGAUCGGAAGAGCACACGU
B24: target 1 U11C,A16G (mixed)
RNA 1: CACCCGUGCAAAAAUGCAGGGGUCUAAAACUGAGCGGAUAACCUCUCUAUGG
RNA 2: GGGAAUGGAUCCACAUCUACGAAUUCGUACCAUAGGGAGGCUAUCCGCUCACCGAGAUCGGAAGAGCACACGU
B25: target 1 insG 3' of 16,insU 3' of 6 (mixed)
RNA 1: CACCCGUGCAAAAAUGCAGGGGUCUAAAACUGAGCGGAUAACCUCUCUAUGG
RNA 2: GGGAAUGGAUCCACAUCUACGAAUUCGUACCAUAGAGGAGGUUAUCCUGCUCACCGAGAUCGGAAGAGCACACGU
B26: target 1 insC 3' of 10,insG 3' of 6 (mixed)
RNA 1: CACCCGUGCAAAAAUGCAGGGGUCUAAAACUGAGCGGAUAACCUCUCUAUGG
RNA 2: GGGAAUGGAUCCACAUCUACGAAUUCGUACCAUAGAGAGGUUCAUCCGGCUCACCGAGAUCGGAAGAGCACACGU
B27: target 1 insU 3' of 5,insC 3' of 3 (mixed)
RNA 1: CACCCGUGCAAAAAUGCAGGGGUCUAAAACUGAGCGGAUAACCUCUCUAUGG
RNA 2: GGGAAUGGAUCCACAUCUACGAAUUCGUACCAUAGAGAGGUUAUCCGUCUCCACCGAGAUCGGAAGAGCACACGU
B28: target 1 A20C,C22G (mixed)
RNA 1: CACCCGUGCAAAAAUGCAGGGGUCUAAAACUGAGCGGAUAACCUCUCUAUGG
RNA 2: GGGAAUGGAUCCACAUCUACGAAUUCGUAGCCUAGAGAGGUUAUCCGCUCACCGAGAUCGGAAGAGCACACGU

biological target: T1, EsCas13d, nuclease-dead; test: crRNA (strand 1, pre-loaded); Mg2+; 40 mM Tris-HCl pH 7.5, 150 mM NaCl, 6 mM MgCl2, 1 mM DTT, 0.1% Tween-20, 0.2 mg/ml BSA; 25 C; 10 min per concentration, then washed; conditions: tags: His6-TwinStrep-SUMO cleaved; N-terminal SNAP kept (SNAP-Surface 488); label: 3' end held by stalled T7 RNA polymerase

Going from B1 to B2, the Kd rises from 9.9 ± 0.7 nM to 58 ± 13 nM (5.9-fold). The first binds more tightly here.

Going from B3 to B4, the Kd rises from 11.1 ± 0.5 nM to 90 ± 40 nM (8.1-fold).

B5 and B6 are the same in Kd: 35 ± 8 nM for the first, 35 ± 4 nM for the second.

Compared with B7, B8 is 3.5-fold higher in Kd: 13 ± 0.8 nM for the first, 46 ± 11 nM for the second. The first binds more tightly here.

First: B9
Second: B10
The Kd of the first is 3.9-fold lower: 11.9 ± 1.1 nM for the first, 46 ± 5 nM for the second. The first binds more tightly here.

First: B11
Second: B12
The Kd of the first is 4.8-fold lower: 11.8 ± 0.7 nM for the first, 57 ± 12 nM for the second.

Compared with B13, B14 is 2.6-fold lower in Kd: 32.7 ± 3.3 nM for the first, 12.5 ± 1.4 nM for the second. The second binds more tightly here.

First: B15
Second: B16
The Kd of the first is 8.6-fold higher: 37 ± 6 nM for the first, 4.32 ± 0.35 nM for the second.

B17 and B18 are within error of each other in Kd: 16.1 ± 1.2 nM for the first, 14.3 ± 0.9 nM for the second.

Going from B19 to B20, the Kd rises from 6.9 ± 0.4 nM to 11 ± 0.7 nM (1.6-fold). The first binds more tightly here.

B21 and B22 are within 1.5-fold of each other in Kd: 12.6 ± 0.8 nM for the first, 10.2 ± 0.5 nM for the second.

Compared with B23, B24 is 2.3-fold higher in Kd: 35.5 ± 2 nM for the first, 80 ± 8 nM for the second.

B25 and B26 are within error of each other in Kd: 21 ± 1 nM for the first, 18.8 ± 2.1 nM for the second.

B27 and B28 are within error of each other in Kd: 38 ± 6 nM for the first, 39.2 ± 2.3 nM for the second.

Reference: article PMC10786891, “Massively parallel profiling of RNA-targeting CRISPR-Cas13d”
